Patent publication US9957295B2, “Peptides inhibiting cold-inducible RNA binding protein activity” (The Feinstein Institute for Medical Research, priority 2013, dated 2018)

T1: MD2 (Homo sapiens, UniProt Q9Y6Y9)
T1 sequence (Q9Y6Y9 19-160): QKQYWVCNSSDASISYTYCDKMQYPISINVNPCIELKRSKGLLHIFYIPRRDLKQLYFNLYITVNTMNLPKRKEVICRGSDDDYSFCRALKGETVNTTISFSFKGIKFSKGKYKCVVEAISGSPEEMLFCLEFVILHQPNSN

T2: rhMD2 (Homo sapiens, UniProt Q9Y6Y9)
T2 construct: Glu17-Asn160); 10-His (C); purchased R&D Systems; host or cells: E. coli
T2 sequence (Q9Y6Y9 17-160): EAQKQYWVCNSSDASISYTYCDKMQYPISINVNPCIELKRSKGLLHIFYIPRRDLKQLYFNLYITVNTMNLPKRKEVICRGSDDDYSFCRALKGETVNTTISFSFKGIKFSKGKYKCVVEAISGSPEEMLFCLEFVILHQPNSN

B1: rhCIRP: recombinant human CIRP, full length, C-terminal DDK tag, from HEK293 cells (Origene) (protein)
chain: MASDEGKLFVGGLSFDTNEQSLEQVFSKYGQISEVVVVKDRETQRSRGFGFVTFENIDDAKDAMMAMNGKSVDGRQIRVDQAGKSSDNRSRGYRGGSAGGRGFFRGGRGRGRGFSRGGGDRGYGGNRFESRSGGYGGSRDYYSSRSQSGGYSDRSSGGSYRDSYDSYATHNE
modifications: left off: small tags and cut ends

How the values were obtained:
TLR4 = TLR4 (Homo sapiens, UniProt O00206); settings: literature; cited from earlier work
Chain of TLR4 (O00206 24-631 limits assumed, species assumed): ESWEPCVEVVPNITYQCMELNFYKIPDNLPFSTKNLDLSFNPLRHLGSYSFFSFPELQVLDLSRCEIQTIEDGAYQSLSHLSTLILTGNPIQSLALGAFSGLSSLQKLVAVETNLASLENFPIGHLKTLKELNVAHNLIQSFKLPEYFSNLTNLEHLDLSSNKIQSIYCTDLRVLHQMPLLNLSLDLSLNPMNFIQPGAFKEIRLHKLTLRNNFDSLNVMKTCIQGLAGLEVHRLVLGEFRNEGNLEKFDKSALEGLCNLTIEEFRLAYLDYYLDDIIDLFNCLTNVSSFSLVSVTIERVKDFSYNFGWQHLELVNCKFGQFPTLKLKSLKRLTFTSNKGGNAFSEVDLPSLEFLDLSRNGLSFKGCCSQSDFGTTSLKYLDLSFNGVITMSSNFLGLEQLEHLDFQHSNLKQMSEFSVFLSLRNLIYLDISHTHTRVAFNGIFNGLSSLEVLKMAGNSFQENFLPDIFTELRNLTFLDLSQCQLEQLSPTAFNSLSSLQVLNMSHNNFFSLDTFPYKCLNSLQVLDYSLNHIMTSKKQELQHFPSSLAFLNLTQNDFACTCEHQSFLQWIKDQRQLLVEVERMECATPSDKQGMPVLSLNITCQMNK

TLR4/MD2 complex = TLR4/MD2 complex (Homo sapiens, UniProt O00206+Q9Y6Y9); settings: SPR, literature; read-out: KD, binding to TLR4/MD2 complex; cited from earlier work
Chain of TLR4/MD2 complex (O00206 24-631 limits assumed, one chain of several): as the sequence (O00206 24-631 limits assumed, species assumed) above

MD2 = molecular target: T1, MD2; settings: literature; read-out: KD, binding to MD2; cited from earlier work
TLR2 = molecular target: T3, TLR2 (Homo sapiens, UniProt O60603); experiment: SPR binding to TLR2
T3 construct: Glu21-Leu590); 10-His (C); purchased R&D Systems; host or cells: mouse myeloma NS0 cell line
T3 sequence (O60603 21-590): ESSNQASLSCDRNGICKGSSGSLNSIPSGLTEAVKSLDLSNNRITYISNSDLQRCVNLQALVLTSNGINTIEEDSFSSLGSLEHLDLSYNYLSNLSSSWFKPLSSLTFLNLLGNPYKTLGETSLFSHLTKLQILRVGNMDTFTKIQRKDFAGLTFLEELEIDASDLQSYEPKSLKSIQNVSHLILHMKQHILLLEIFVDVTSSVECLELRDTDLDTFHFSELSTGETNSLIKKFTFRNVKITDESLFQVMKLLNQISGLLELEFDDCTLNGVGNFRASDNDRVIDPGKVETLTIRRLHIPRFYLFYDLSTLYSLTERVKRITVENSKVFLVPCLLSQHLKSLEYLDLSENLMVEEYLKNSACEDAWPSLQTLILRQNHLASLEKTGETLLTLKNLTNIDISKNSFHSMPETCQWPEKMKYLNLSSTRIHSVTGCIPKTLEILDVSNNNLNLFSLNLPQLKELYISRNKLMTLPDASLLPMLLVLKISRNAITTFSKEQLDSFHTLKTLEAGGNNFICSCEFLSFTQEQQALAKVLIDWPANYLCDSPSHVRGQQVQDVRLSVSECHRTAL
Method: (§1) Analysis of protein-protein and peptide-protein interactions were conducted using the BIAcore T200 instrument (GE Healthcare). Binding reactions were performed in 1×PBS buffer containing 0.01% Tween-20 (pH 7.4). The CM5 dextran chip (flow cell-2) was first activated by injection with 89 μl of 0.1 M […] and 0.1 M N-hydroxysuccinimide. An aliquot of 200 μl of 5 μg/ml of the ligand diluted in 10 mM sodium acetate (pH 4.5) was injected into flow cell-2 of the CM5 chip for immobilization. Next, 135 μl of 1 M ethanolamine (pH 8.2) was then injected to block the remaining active sites. The flow cell-1 without coating with the ligand was used as a control to evaluate nonspecific binding. […] To evaluate the binding, the analyte (ranging from 62.5 nM to 1.0 μM for kinetics analysis or 0.5 μM for yes/no binding analysis) was injected into flow cell-1 and -2 and the association of analyte and ligand was recorded respectively by surface plasmon resonance. […] Data were analyzed by the BIAcore T200 Evaluation Software. […]
(§2) Surface plasmon resonance (SPR) analysis was utilized to determine the physical interaction and binding affinity between rhCIRP and pattern-recognition receptors and MD2. […] The region of CIRP that binds to MD2 was determined via the synthesis of 32 oligopeptides (15-mer) covering the entire human CIRP sequence. […]

rhMD2 = molecular target: T2, rhMD2; experiment: SPR binding to immobilized rhMD2; settings: kinetic analysis, 25° C., read-out: apparent KD, binding to rhMD2
Method: Analysis of protein-protein and peptide-protein interactions were conducted using the BIAcore T200 instrument (GE Healthcare). Binding reactions were performed in 1×PBS buffer containing 0.01% Tween-20 (pH 7.4). The CM5 dextran chip (flow cell-2) was first activated by injection with 89 μl of 0.1 M […] and 0.1 M N-hydroxysuccinimide. An aliquot of 200 μl of 5 μg/ml of the ligand diluted in 10 mM sodium acetate (pH 4.5) was injected into flow cell-2 of the CM5 chip for immobilization. Next, 135 μl of 1 M ethanolamine (pH 8.2) was then injected to block the remaining active sites. The flow cell-1 without coating with the ligand was used as a control to evaluate nonspecific binding. The binding analyses were performed at flow rate of 30 μl/min at 25° C. To evaluate the binding, the analyte (ranging from 62.5 nM to 1.0 μM for kinetics analysis or 0.5 μM for yes/no binding analysis) was injected into flow cell-1 and -2 and the association of analyte and ligand was recorded respectively by surface plasmon resonance. The signal from the blank channel (flow cell-1) was subtracted from the channel (flow-cell 2) coated with the ligand. Data were analyzed by the BIAcore T200 Evaluation Software. For all samples, a blank injection with buffer alone was subtracted from the resulting reaction surface data. Data were globally fitted to the Lagmuir model for a 1:1 binding.
Surface plasmon resonance (SPR) analysis was utilized to determine the physical interaction and binding affinity between rhCIRP and pattern-recognition receptors and MD2. […] The sensorgrams show association and dissociation of analyte at the indicated concentration passed over to the immobilized ligand on the sensor chip, indicated as analyte/ligand on top of each diagram. […] The region of CIRP that binds to MD2 was determined via the synthesis of 32 oligopeptides (15-mer) covering the entire human CIRP sequence. The oligopeptides were passed over immobilized rhMD2 on the BIAcore instrument, followed by subsequent performance of a series of SPR analyses. Three oligopeptides with high binding affinity were indicated. […] Three oligopeptides, aa 101-115, 106-120 (C22), and 111-125 (C23) bound to rhMD2 with high affinity (FIG. 14 and FIG. 19).

RAGE = molecular target: T4, RAGE (Homo sapiens, UniProt Q15109); experiment: SPR binding to RAGE
T4 construct: Ala23-Ala344); 6-His (C); purchased Biovision; host or cells: human HEK293 cells
T4 sequence (Q15109 23-344): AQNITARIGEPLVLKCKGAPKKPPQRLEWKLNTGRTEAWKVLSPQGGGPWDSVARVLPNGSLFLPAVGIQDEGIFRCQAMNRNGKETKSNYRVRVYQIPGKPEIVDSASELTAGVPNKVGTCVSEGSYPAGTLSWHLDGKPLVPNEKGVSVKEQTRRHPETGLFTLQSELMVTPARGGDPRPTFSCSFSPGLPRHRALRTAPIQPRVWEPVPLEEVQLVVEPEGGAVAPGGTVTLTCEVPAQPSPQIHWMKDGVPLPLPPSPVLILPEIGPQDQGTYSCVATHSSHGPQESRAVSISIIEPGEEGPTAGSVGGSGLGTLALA
Method: as §1, §2

THP-1 cells = experiment: TNF-α release from differentiated THP-1 cells stimulated with recombinant proteins; type: cell-based, human; settings: 4 h
Method: As with the murine model, the stimulation of TNF-α, release by rCIRP in a human model was studied. […] These experiments were conducted by incubating differentiated human THP-1 cells with rhCIRP or rmCIRP at the indicated concentrations for 4 h. *P<0.05 vs. no CIRP. Similarly, human PBMC were incubated with the indicated concentrations of rhCIRP for 8 h. *P<0.05 vs. no rhCIRP. Thus, stimulation of cytokine release by CIRP was not attributable to LPS contamination. Furthermore, CIRP-induced cytokine activation was conserved between rodents and humans.
rmCIRP induced TNF-α and HMGB1 release in macrophages (FIGS. 10a, b and c). It was reported that HMGB1 can also stimulate TNF-α release (Andersson, U., et al. High mobility group 1 protein (HMG-1) stimulates proinflammatory cytokine synthesis in human monocytes. J. Exp. Med. 192, 565-570 (2000)). The relationship between CIRP and HMGB1 on stimulating TNF-α release was analyzed by applying respective neutralizing antibodies. […] After 4 h, TNF-α levels in conditioned medium (CM) were assayed by ELISA. Data are mean±s.e.m. from three independent experiments. *P<0.05 vs. rmCIRP+ control IgG. In FIG. 16D, RAW 264.7 cells were pre-incubated with rabbit control IgG or anti-CIRP antibodies at indicated dilutions of 1 mg/ml for 20 min before adding 1.0 μg/ml rmCIRP. After 4 h, TNF-α levels in CM were assayed by ELISA. Data are mean±s.e.m. from three independent experiments. *P<0.05 vs. rmCIRP+ control IgG. THP-1 cells were incubated with 4 μg/ml of anti-CIRP antibodies, anti-HMGB1 antibodies, or non-immunized control IgG for 1 h prior to adding rmCIRP (0.3 μg/ml), rmHMGB1 (0.3 μg/ml), or rmCIRP/rmHMGB1 (0.3 μg/ml, 0.3 μg/ml) for 8 h. *P<0.05 vs. rmCIRP; #P<0.05 vs. rmHMGB1. […] Furthermore, rmCIRP, rmHMGB1, and rmCIRP plus rmHMGB1 induced TNF-α levels of 0.8, 0.6, and 1.6 ng/ml, respectively. […] TNF-α levels in all collected CM were assayed by ELISA. Data are mean±s.e.m. from three or four independent experiments.
Murine macrophage-like RAW 264.7 cells and human monocyte THP-1 cells were obtained from ATCC (Manassas, Va.). […]

Molecule | binding to TLR4 (in words) (TLR4) | Kd (TLR4/MD2 complex) [nM] | Kd (MD2) [nM] | KD with TLR2 (TLR2) | Kd (rhMD2) [nM] | KD with RAGE (RAGE) | activity in stimulating TNF-α release from differentiated THP-1 cells (THP-1 cells)
HMGB1: high mobility group box 1 protein, proinflammatory cytokine; literature binding data | did not bind to TLR4 | 1500 | 8 | – | – | – | –
B1 | – | – | – | in the nM range | 302 | in the nM range | comparable activity to rmCIRP
